The target in series [1] is T1, Pif1p (nuclear isoform) (Saccharomyces cerevisiae, UniProt P07271 40-859).
T1 sequence: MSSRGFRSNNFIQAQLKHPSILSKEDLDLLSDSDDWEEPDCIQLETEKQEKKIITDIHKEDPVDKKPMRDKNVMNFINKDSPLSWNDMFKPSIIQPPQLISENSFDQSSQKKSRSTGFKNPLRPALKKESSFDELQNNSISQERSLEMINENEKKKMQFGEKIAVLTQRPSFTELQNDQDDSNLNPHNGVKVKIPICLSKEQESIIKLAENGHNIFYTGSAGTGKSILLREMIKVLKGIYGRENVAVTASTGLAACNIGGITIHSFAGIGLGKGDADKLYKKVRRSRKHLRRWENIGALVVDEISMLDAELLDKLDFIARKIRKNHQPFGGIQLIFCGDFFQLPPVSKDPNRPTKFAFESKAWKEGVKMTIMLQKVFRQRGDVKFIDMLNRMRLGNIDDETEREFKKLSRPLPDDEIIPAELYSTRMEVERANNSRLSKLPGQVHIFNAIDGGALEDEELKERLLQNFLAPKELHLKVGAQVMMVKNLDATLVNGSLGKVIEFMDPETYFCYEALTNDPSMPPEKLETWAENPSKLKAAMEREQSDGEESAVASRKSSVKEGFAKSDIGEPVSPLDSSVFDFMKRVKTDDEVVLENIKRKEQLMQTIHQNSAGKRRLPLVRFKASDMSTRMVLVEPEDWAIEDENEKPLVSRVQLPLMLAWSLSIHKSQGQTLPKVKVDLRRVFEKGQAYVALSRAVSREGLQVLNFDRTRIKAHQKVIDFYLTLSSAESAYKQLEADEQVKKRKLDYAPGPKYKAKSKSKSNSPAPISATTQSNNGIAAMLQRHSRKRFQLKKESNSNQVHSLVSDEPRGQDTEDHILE
The series is described as follows: EMSA. For orientation: In EMSA bound probe runs differently from free probe, usually more slowly.

The target of series [2] is T1, Pif1p (nuclear isoform). As to the kind of experiment: EMSA. This is another data set of the same source.

Read-outs that look alike come from different tables or passages of the source.

Drawing on article PMC2034482, this text covers Kd for 4 molecules.

B1: D20 (dsDNA)
DNA 1: CGCCATGGTGATCCGAGTGC
DNA 2: CACTGGCCGTCTTACGGTCGGCACTCGGATCACCATGGCG
As usually defined, the Kd is the concentration at which binding is half-saturated. B1: the Kd in the series with Pif1p (nuclear isoform) [1] was found to be 100 nM.

B2: fD20 (dsDNA)
DNA 1: CGCCATGGTGATCCGAGTGCAAAAAAAAAA
DNA 2: CACTGGCCGTCTTACGGTCGGCACTCGGATCACCATGGCG
Turning to B2, the figures for the Kd in the series with Pif1p (nuclear isoform) [1] and with Pif1p (nuclear isoform) [2] were 130 nM and 320 nM, respectively.

B3: R20 (DNA:RNA)
RNA: CGCCAUGGUGAUCCGAGUGC
DNA: CACTGGCCGTCTTACGGTCGGCACTCGGATCACCATGGCG
modifications: top strand RNA, bottom strand DNA
Consider B3, for which binding with Pif1p (nuclear isoform) [1] was put at a Kd of 17 nM.

B4: fR20 (DNA:RNA)
RNA: CGCCAUGGUGAUCCGAGUGCAAAAAAAAAA
DNA: CACTGGCCGTCTTACGGTCGGCACTCGGATCACCATGGCG
modifications: top strand RNA, bottom strand DNA
In the series with Pif1p (nuclear isoform) [1], B4 gave a dissociation constant (Kd) of 52 nM.
